Assay [1] concerns the target T1, FLAG-p100 (in vitro translated) (human, UniProt Q00653 1-900).
T1 sequence: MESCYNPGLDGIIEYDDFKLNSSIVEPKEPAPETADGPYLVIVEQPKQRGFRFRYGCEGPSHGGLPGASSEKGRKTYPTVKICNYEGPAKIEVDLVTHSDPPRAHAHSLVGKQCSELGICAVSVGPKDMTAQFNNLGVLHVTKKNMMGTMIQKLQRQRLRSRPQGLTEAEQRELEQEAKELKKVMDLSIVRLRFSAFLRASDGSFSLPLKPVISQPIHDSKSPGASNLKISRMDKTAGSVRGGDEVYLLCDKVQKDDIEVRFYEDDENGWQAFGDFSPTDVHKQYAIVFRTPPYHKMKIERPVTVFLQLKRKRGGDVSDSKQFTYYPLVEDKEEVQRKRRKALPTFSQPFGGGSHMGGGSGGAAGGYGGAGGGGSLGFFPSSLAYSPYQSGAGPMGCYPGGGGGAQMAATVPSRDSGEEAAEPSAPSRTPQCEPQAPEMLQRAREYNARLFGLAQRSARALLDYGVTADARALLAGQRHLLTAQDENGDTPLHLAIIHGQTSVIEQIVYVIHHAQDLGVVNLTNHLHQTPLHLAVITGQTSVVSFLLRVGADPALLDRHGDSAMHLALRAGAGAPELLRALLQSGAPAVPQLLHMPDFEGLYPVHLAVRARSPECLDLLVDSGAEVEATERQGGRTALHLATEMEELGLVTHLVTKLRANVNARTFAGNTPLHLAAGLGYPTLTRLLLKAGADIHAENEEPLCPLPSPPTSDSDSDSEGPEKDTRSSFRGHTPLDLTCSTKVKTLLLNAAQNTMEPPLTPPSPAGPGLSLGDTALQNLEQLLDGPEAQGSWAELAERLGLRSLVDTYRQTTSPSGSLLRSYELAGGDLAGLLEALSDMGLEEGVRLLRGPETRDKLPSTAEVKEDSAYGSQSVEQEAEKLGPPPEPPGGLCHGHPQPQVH
In words: GST-Tat pulldown of in vitro translated protein, anti-FLAG Western blot. (A western blot detects proteins with antibodies after separation by electrophoresis.)
Procedure: (§1) The proteins were resolved on 10% SDS-PAGE, transferred to polyvinylidene difluoride membranes, and analyzed by immunoblotting with the indicated antibodies. The pcDNA3 plasmids expressing the IκB genes under the T7 promoter were used as templates to translate in vitro the [³⁵S]methionine-labeled IκB proteins by using the TNT Quick Coupled transcription/translation systems (Promega). Aliquots (10 μl) of translation mixture were incubated with GST-Tat or GST proteins (10 μg) in 500 μl of binding buffer supplemented with 1 μg/μl of bovine serum albumin on a rocking platform for 3 h at room temperature.

Assay [2] deals with T2, [35S]methionine-labeled IκB-α 1-263 (in vitro translated) (UniProt P25963 1-263, [35S]methionine label).
T2 construct: Translated in vitro from pcDNA3
T2 sequence (looked up): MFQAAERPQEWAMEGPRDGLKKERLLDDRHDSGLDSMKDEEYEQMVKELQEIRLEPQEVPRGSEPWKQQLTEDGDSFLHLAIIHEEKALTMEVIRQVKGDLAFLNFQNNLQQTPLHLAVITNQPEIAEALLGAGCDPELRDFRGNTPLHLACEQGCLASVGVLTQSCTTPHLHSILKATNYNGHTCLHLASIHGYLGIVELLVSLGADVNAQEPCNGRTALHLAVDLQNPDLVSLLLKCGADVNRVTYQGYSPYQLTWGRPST
In words: GST-Tat pulldown of [35S]-labeled in vitro translated protein, autoradiography.
Procedure: (§2) The pcDNA3 plasmids expressing the IκB genes under the T7 promoter were used as templates to translate in vitro the [³⁵S]methionine-labeled IκB proteins by using the TNT Quick Coupled transcription/translation systems (Promega). Aliquots (10 μl) of translation mixture were incubated with GST-Tat or GST proteins (10 μg) in 500 μl of binding buffer supplemented with 1 μg/μl of bovine serum albumin on a rocking platform for 3 h at room temperature.

The target in assay [3] is T3, p105 (in vitro translated) (human, UniProt P19838 1-968).
T3 sequence: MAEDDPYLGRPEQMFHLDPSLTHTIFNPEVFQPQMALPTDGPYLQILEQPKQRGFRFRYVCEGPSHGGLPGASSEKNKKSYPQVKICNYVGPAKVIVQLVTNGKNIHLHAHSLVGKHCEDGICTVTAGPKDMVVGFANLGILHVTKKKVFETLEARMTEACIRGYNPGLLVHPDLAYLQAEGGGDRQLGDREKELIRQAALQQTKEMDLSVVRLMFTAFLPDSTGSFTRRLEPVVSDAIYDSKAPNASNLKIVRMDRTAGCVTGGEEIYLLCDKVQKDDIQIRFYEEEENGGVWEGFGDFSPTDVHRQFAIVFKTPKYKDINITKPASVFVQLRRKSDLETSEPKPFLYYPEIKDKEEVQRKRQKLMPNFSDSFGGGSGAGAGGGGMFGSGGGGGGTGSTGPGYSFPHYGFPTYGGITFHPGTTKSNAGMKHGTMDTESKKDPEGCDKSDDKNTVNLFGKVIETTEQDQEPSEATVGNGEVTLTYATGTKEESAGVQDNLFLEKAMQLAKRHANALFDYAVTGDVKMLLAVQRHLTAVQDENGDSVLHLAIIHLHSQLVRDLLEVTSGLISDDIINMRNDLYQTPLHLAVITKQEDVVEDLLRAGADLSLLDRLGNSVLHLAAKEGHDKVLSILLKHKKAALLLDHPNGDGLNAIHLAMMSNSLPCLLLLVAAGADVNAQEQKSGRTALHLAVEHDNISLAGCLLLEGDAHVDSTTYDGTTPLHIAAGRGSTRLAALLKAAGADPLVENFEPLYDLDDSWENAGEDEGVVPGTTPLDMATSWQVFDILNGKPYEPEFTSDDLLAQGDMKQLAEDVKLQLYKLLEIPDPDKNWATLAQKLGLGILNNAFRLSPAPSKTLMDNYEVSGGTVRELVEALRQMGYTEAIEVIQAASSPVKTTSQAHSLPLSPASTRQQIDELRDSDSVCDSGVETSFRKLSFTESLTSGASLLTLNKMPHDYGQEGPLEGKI
In words: GST-Tat pulldown of in vitro translated protein, anti-p105 Western blot.
Procedure: as §1

Assay [4] has as its target T4, GST (UniProt P08515 1-218 = GST).
T4 construct: Negative control in the pulldowns; also called GST protein; GST alone
In words: GST pulldown from extracts of transfected HeLa cells, anti-FLAG Western blot.

The target in a further assay is T5, GST-IκB-α (UniProt P25963 1-317).
T5 construct: also called pGEX-2T-IκB-α product; not shown: glutathione S-transferase (GST) encoded by pGEX-2T
T5 sequence: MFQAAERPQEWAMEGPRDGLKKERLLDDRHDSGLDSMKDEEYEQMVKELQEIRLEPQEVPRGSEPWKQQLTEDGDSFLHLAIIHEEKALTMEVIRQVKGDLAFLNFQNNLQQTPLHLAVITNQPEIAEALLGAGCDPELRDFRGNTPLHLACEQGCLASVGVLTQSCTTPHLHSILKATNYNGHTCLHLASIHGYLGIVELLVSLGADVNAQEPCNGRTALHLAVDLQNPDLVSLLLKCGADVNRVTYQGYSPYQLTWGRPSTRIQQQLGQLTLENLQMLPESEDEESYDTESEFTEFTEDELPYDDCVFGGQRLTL
In words: GST-IκB-α pulldown from extracts of transfected HeLa cells, anti-FLAG Western blot.

Assay [5] concerns the target T4, GST. As to the kind of experiment: GST pulldown of [35S]-labeled in vitro translated protein, autoradiography.
Procedure: as §2

These results are taken from patent US20100093618A1 (published 2010).

T4 sequence (P08515 whole entry): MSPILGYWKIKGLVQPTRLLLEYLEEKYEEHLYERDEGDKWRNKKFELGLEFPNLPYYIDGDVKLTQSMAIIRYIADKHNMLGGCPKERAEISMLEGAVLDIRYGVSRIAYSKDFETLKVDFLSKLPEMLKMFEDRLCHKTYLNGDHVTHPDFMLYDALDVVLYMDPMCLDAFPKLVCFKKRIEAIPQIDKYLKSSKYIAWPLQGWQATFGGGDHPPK

B1: GST-Tat (other)
chain: MEPVDPRLEPWKHPGSQPKTACTNCYCKKCCFHCQVCFITKALGISYGRKKRRQRRRAHQNSQTHQASLSKQPTSQPRGDPTGPKE
notes: also called GST-Tat fusion protein from pGEX-2T-Tat; not shown: glutathione S-transferase (GST) encoded by pGEX-2T
Consider B1, for which the binding result in assay [1], in assay [2] and in assay [3] was “no binding” each time.

B2: FLAG-Tat C(22,25,27)A (p3XFLAG-CMV-Tat C(22,25,27)A) (other)
chain: MEPVDPRLEPWKHPGSQPKTAATNAYAKKCCFHCQVCFITKALGISYGRKKRRQRRRAHQNSQTHQASLSKQPTSQPRGDPTGPKE
notes: Expressed in transfected HeLa cells
On to B2, for which, in the assay with GST [4], the binding result was “no binding”.

B3: FLAG-Tat R(49-57)A (p3XFLAG-CMV-Tat R(49-57)A) (other)
chain: MEPVDPRLEPWKHPGSQPKTACTNCYCKKCCFHCQVCFITKALGISYGAKKAAQAAAAHQNSQTHQASLSKQPTSQPRGDPTGPKE
For B3, the binding result with GST-IκB-α and in the assay with GST [4] was “no binding” throughout.

B4: FLAG-Tat (p3XFLAG-CMV-Tat, wild type) (other)
chain: MEPVDPRLEPWKHPGSQPKTACTNCYCKKCCFHCQVCFITKALGISYGRKKRRQRRRAHQNSQTHQASLSKQPTSQPRGDPTGPKE
notes: Expressed in transfected HeLa cells (or MEFs); also called wild type Tat
For B4, the binding result in the assay with GST [4] was “no binding”.

B5: [35S]methionine-labeled IκB-α 72-287 (in vitro translated) (other)
chain: EDGDSFLHLAIIHEEKALTMEVIRQVKGDLAFLNFQNNLQQTPLHLAVITNQPEIAEALLGAGCDPELRDFRGNTPLHLACEQGCLASVGVLTQSCTTPHLHSILKATNYNGHTCLHLASIHGYLGIVELLVSLGADVNAQEPCNGRTALHLAVDLQNPDLVSLLLKCGADVNRVTYQGYSPYQLTWGRPSTRIQQQLGQLTLENLQMLPESEDEE
modifications: [35S]methionine label
On to B5, for which the binding result in the assay with GST [5] was “no binding”.

B6: [35S]methionine-labeled IκB-α 72-287 L(272,274,277)A (in vitro translated) (other, UniProt P25963 72-287, looked up)
chain: EDGDSFLHLAIIHEEKALTMEVIRQVKGDLAFLNFQNNLQQTPLHLAVITNQPEIAEALLGAGCDPELRDFRGNTPLHLACEQGCLASVGVLTQSCTTPHLHSILKATNYNGHTCLHLASIHGYLGIVELLVSLGADVNAQEPCNGRTALHLAVDLQNPDLVSLLLKCGADVNRVTYQGYSPYQLTWGRPSTRIQQQLGQATAENAQMLPESEDEE
modifications: [35S]methionine label
notes: range 72-287
For B6, in the assay with GST [5], the binding result is “no binding”.

B7: [35S]methionine-labeled IκB-α 120-317 (in vitro translated) (other, UniProt P25963 120-317, looked up)
chain: ITNQPEIAEALLGAGCDPELRDFRGNTPLHLACEQGCLASVGVLTQSCTTPHLHSILKATNYNGHTCLHLASIHGYLGIVELLVSLGADVNAQEPCNGRTALHLAVDLQNPDLVSLLLKCGADVNRVTYQGYSPYQLTWGRPSTRIQQQLGQLTLENLQMLPESEDEESYDTESEFTEFTEDELPYDDCVFGGQRLTL
modifications: [35S]methionine label
notes: Translated in vitro from pcDNA3
Turning to B7, the binding result with GST [5] is recorded as “no binding”.

B8: [35S]methionine-labeled IκB-α 243-317 (in vitro translated) (other, UniProt P25963 243-317, looked up)
chain: VNRVTYQGYSPYQLTWGRPSTRIQQQLGQLTLENLQMLPESEDEESYDTESEFTEFTEDELPYDDCVFGGQRLTL
modifications: [35S]methionine label
notes: as for B7
Turning to B8, in the assay with GST [5], the binding result is on record as “no binding”.
